Source: patent publication US20020090619A1, “Methods for identifying mitochondrial divalent cation transporters” (priority 2000, published 2002)

B1: Para-nitrobenzyl esterase: B. subtilis para-nitrobenzyl esterase from plasmid PNB106R (SEQ ID NO:1; SEQ ID NO:7) (protein, listed as Bascillus subtilis)
chain: MTHQIVTTQYGKVKGTTENGVHKWKGIPYAKPPVGQWRFKAPEPPEVWEDVLDATAYGPICPQPSDLLSLSYTELPRQSEDCLYVNVFAPDTPSQNLPVMVWIHGGAFYLGAGSEPLYDGSKLAAQGEVIVVTLNYRLGPFGFLHLSSFDEAYSDNLGLLDQAAALKWVRENISAFGGDPDNVTVFGESAGGMSIAALLAMPAAKGLFQKAIMESGASRTMTKEQAASTAAAFLQVLGINESQLDRLHTVAAEDLLKAADQLRIAEKENIFQLFFQPALDPKTLPEEPEKSIAEGAASGIPLLIGTTRDEGYLFFTPDSDVHSQETLDAALEYLLGKPLAEKAADLYPRSLESQIHMMTDLLFWRPAVAYASAQSHYAPVWMYRFDWHPEKPPYNKAFHALELPFVFGNLDGLERMAKAEITDEVKQLSHTIQSAWITFAKTGNPSTEAVNWPAYHEETRETVILDSEITIENDPESEKRQKLFPSKGE
B2: areA: Acinetobacter areA esterase expressed in E. coli BL21(DE3) (SEQ ID NO:2) (protein, listed as Acinetobacter sp.)
chain: MLQSLDPQLASFFAMLENQGAPAFDIGTLNDPNINEMRNWYLNFGPHVAGQFIELQDVEDLWIQVDDGSLRLRLYKTQRQHSESCETLIYFHGGGWCIGSIETHDLLCRHLVNDLDVNVISVDYRLAPEYPYPQAAHDAIHATQWIFEHASALGIHPDHLYVAGDSAGGNLAAITALTFKEQTYRTSLAGQILIYPCIDLTVIHDNKYPSFEKQKLTPPLSAEQMSKMIQIYLKNEDFAYQWLASPLLAQSHQHLPSTLIITAEFDPLHDQGCVYFEKLKSSLVNTEYHEIKGVVHGFFEMYGVLNKTKETINIIRAWLKNNTKSK
B3: HD-1 esterase: HD-1 esterase from an oil degrading bacterium (SEQ ID NO:4) (protein)
chain: MTLDAQAKAILDQIARSPMPKLHQVPASVARQMFEISCKLTEIKNLPIGRVEDRVIPGPDDTELPIRIYTPVAAPPGPLPVLVFFHGGGFVIGSLDSHDAPCRLIANEARCLVVSVDYRLAPENRFPAAVDDCLAAVTWVARNAAEINADPTRIAVGGDSAGGNLSAVVSQQLRDAGGPKIVFQLLIYPATDALHEGLSRTSNAEGYMLDKDLMSWFFAQYLGDGGGVDLADPRFSPLRHANLGNLGTIHVVVAGFDPLRDEGIAYAEALKAAGNKVTLSEFKGQIHGFCSMAGVIEAGRTALVEGAALLKEAFAQA
modifications: Sequence encoding petroleum-degrading bacterium esterase.
B4: SalE esterase: Acinetobacter SalE esterase expressed in E. coli BL21(DE3) (SEQ ID NO:3) (protein, listed as Acinetobacter sp.)
chain: MITYVLVHGSWHDGSLWEPVATHLRAQGHTVHCPTVAGHGPNADRNVTHAQCSQSIADYIVKHDLSEIVLLGHSYGGTIISKVAEAIPERIQRLIYWNAFVLQDGENMFDNMPEAYYELFTSLAAASGDNTVLLPYEVWRHAFINDADDQMAEETYKMLTPEPCQPFHDRLDLKKFYTLNIPKSYLNCTEDQALPAGFWHPKMSNRLGEFKLVEMGGSHEAMFTRPQELATKIIEASHD

Assays:
intact yeast = test: Aequorin luminescence in intact yeast cells expressing mitochondrially targeted aequorin; type: cell-based, Saccharomyces cerevisiae; details: intact cells
Experimental: Yeast cells (strain X4003-5B; leu2, ade1, his4, met2, ura3, trp5, gal1) obtained from the Yeast Genetic Stock Center (Berkeley, Calif.) were transformed with the pYES2 plasmid, encoding the human mitochondrially targeted apoaequorin fragment, using the lithium acetate method (Sambrook et al., 1989), and INVSc1 cells were transformed with the pGK plasmid encoding the yeast mitochondrially targeted apoaequorin fragment. Selection was carried out on plates prepared with synthetic complete medium minus uracil (SC-U) (Sherman, 1991 Meths. Enzymol. 194:3). Transformed colonies were cultured in a small volume of SC-U and assayed for aequorin activity in vitro as described by Nakajima et al. (1991 Proc. Nat. Acad. Sci. USA 88:6878). Briefly, the cells were harvested by centrifugation, resuspended in lysis buffer (50 mM Tris, 2 mM EDTA, 0.5 mM PMSF, pH 8 w/NaOH), disrupted by vortexing with glass beads, and then treated with 0.1% Triton X-100 to release apoaequorin from the mitochondria. Following centrifugation, 200 μl aliquots of the supernatants were incubated with coelenterazine (2.5 μM) and 2-mercaptoethanol (2 μl), for ˜3 hr while standing on ice, to form the luminescent aequorin from its apoprotein. The coelenterazine cofactor is highly hydrophobic and readily permeates yeast cell membranes (Nakajima et al., 1991) such that reconstitution was conducted without disrupting the cells in some cases. 2-mercaptoethanol was omitted when intact cells were employed. A transformant which yielded high luminescence (named X4003-5B-AEQmito1) was selected for further characterization.
For preculture, the transformant was inoculated into 50 ml of SC-U plus 2% glucose, and incubated in an air shaker at 180 rpm and 30° C. At 24 hr, the preculture was transferred to 500 ml of a medium containing 1% yeast extract, 2% peptone, 2% lactate, 1% galactose, 0.012% adenine, pH 5 w/NaOH, and growth was continued under conditions which were otherwise the same. […]
Luminescence measurements were carried out in 6×50 mm culture tubes, using a total volume of 0.3 ml, and were started by injection of 5-20 μl of mitochondria or cells. […] For each value, the ratio of observed luminescence (L) to the potential luminescence remaining (Lmax) was calculated, and compared to a calibration curve which relates this ratio to the free Ca^2+ concentration. […] The total luminescence available initially (Ltotal) must be known and was determined in separate experiments, wherein a saturating Ca^2+ concentration (20 μM) is employed to discharge the aequorin completely. This value allows Lmax to be calculated at any time, as Ltotal minus the sum of luminescence that already occurred. […]

[1] = tested on: isolated yeast mitochondria; test: Ca2+ transport in isolated yeast mitochondria expressing aequorin (luminescence); type: biochemical, Saccharomyces cerevisiae; details: 2 μM A23187, medium containing no added Ca^2+, FIG. 22B
Experimental: For preculture, the transformant was inoculated into 50 ml of SC-U plus 2% glucose, and incubated in an air shaker at 180 rpm and 30° C. At 24 hr, the preculture was transferred to 500 ml of a medium containing 1% yeast extract, 2% peptone, 2% lactate, 1% galactose, 0.012% adenine, pH 5 w/NaOH, and growth was continued under conditions which were otherwise the same. Cells were harvested after an additional 24 hr, spheroplasts were prepared using zymolyase, and mitochondria were isolated by the method of Daum et al. (1982) as previously described (Jung et al., 1997). The final pellet was resuspended at ˜20 mg protein/ml in 0.6 M mannitol, 20 mM HEPES (K^+ salt, pH 6.8). Apoaequorin in the intact or disrupted mitochondria was reconstituted by incubation with coelenterazine as described above for cells.
For most experiments, the mitochondria were present at 0.4 mg protein/ml in a standard medium that contained 0.3 M KCl, 20 mM HEPES, (K^+ salt, pH 7.10), 10 mM KH2PO4, 2 mM EGTA, and 2 mM MgCl2. Other additions are described in greater detail below. Ca^2+ buffers were formed by adding various amounts of CaCl2 to this EGTA containing medium. The free Ca^2+ concentrations which resulted were calculated using a computer program (Brooks et al., 1992 Anal. Biochem. 201:119).
Luminescence measurements were carried out in 6×50 mm culture tubes, using a total volume of 0.3 ml, and were started by injection of 5-20 μl of mitochondria or cells. A SAI model 3000 integrating photometer was employed, with AJD sampling at 0.4 seconds intervals driven by Asyst software. Values were transformed into corresponding Ca^2+ concentrations by computer assisted calculations based upon published calibration methods (Allen et al., 1977 Science 195:996; Brini et al., 1995 J. Biol. Chem. 270:9896). For each value, the ratio of observed luminescence (L) to the potential luminescence remaining (Lmax) was calculated, and compared to a calibration curve which relates this ratio to the free Ca^2+ concentration. Thus, complete calibrated progress curves were generated. The total luminescence available initially (Ltotal) must be known and was determined in separate experiments, wherein a saturating Ca^2+ concentration (20 μM) is employed to discharge the aequorin completely. This value allows Lmax to be calculated at any time, as Ltotal minus the sum of luminescence that already occurred.
The calibration data were obtained at an ionic strength of 335 mM and in the presence of 1 mM Mg^2+, to mimic conditions in the mitochondrial matrix, because both factors influence the affinity of aequorin for Ca2+ (Cobbold et al., 1987 Biochem. J. 248:313). Luminescence values were corrected for low background values that are obtained when Ca^2+ is absent before conducting further calculations.

[2] = Yuchi et al., 1993; cited from earlier work
[3] = Esterase cleavage of divalent cation-sensitive indicator molecule precursors (fluorescence); type: biochemical; details: precursor 1 μg/ml, sonicated E. coli expressing the esterase
Excerpt: Standard molecular biology procedures were used (Sambrook et al., 1989 Molecular Cloning: A Laboratory Manual, Cold Spring Harbor Laboratory Press, Cold Spring Harbor, N.Y.). All reagents were from Sigma (St. Louis, Mo.) unless otherwise indicated. E. coli cells expressing esterases from several sources: B. subtilis para-nitrobenzyl esterase from plasmid PNB106R (Zock et al., 1994) (SEQ ID NO:1; SEQ ID NO:7); Acinetobacter areA expressed in E. coli strain BL21(DE3) (SEQ ID NO:2; from plasmid pADPW40, Jones et al. 1999 J. Bacteriol. 181:4568, obtained from Drs. R. Jones and P. Williams, Univeristy of Wales Bangor, UK); Acinetobacter SalE expressed in E. coli strain BL21(DE3) (SEQ ID NO:3; from plasmid pADPW70, Jones et al. 2000 J. Bacteriol. 1832:2018, also obtained from Drs. R. Jones and P. Williams, Univeristy of Wales Bangor, UK) were grown in 10 mL of standard LB media plus ampicillin (100 μg/ml) at 37° C. Tetracycline (10 μg/ml) was present instead of ampicillin for the cells expressing B. subtilis para-nitrobenzyl esterase. For strains expressing all proteins except para-nitrobenzyle esterase, the cells were grown to an OD (λ=600 nm) of 0.6 and protein expression was induced by administration of […] IPTG for 4 hours until the culture reached an OD600 of ˜1.0. Cells expressing para-nitrobenzylesterase were grown at 30° C. and protein expression was induced by a temperature shift to 40° C. for 6 hours. The cells attained an OD600 of ˜1.0. Cells were washed, pelleted by centrifugation, and then resuspended in 0.5 ml of cold 0.12 M Tris Cl, pH 8.0. Cells were sonicated for ten seconds and then incubated on ice for ten seconds. This sonication step was repeated eight times.
For fluorescence measurements, a volume of 50 μl of the sonicated cell suspension was placed in 3.0 ml of 0.1 M KCl, 50 uM EGTA, 20 mM HEPES pH 7.40. As a divalent cation-sensitive indicator molecule, one of the following compounds (all from Molecular Probes, Inc., Eugene, Oreg.) was present at a final concentration of 1 μg/ml: BCECF AM (BCECF (2′,7′-bis-(2-carboxyethyl)-5-(and-6)-carboxyfluorescein), a proton indicator used as an esterase-cleavable control), Rhod-2 AM, Fluo-3 AM, Indo-1 AM, or Fura-2 AM. To monitor detection of divalent cation using the divalent cation-sensitive indicator molecules generated by esterase cleavage of the precursor forms, each reaction was made 2 mM CaCl2 The wavelengths used for the indicator dyes were as follows: Fluo-3, excitation 488 nm, emission 520 nm; Rhod-2, excitation 540 nm, emission 580 nm; Indo-1 AM, excitation 338 nm, emission scan […]; Fura-2, excitation scan 250-450 nm, emission 510 nm; BCECF, excitation 440 nm, emission 550 nm.

Molecule | hydrolysis of indicator precursors (AM esters) to Ca^2+-sensitive indicator molecules [3] | other results
CNc1ccc2oc(C[C@H]3O[C@@]4(CC[C@H]3C)O[C@H]([C@H](C)C(=O)c3ccc[nH]3)[C@H](C)C[C@H]4C)nc2c1C(=O)O [A23187] |  | additional luminescence when added after the response to ETH 129 (intact yeast): absence of any additional luminescence; effect on matrix Ca^2+ concentration [1]: reduced the matrix Ca^2+ concentration below the detection limit
COc1cc(N(CC(=O)O)CC(=O)O)c2nc(COc3cc(C)ccc3N(CC(=O)O)CC(=O)O)ccc2c1 [Quin-2] |  | pKa^4 [2]: 6.25
B1 | detectably hydrolyzed all divalent cation-sensitive indicator molecule precursors that were tested | 
B2 | rate of hydrolysis appeared to be significantly slower | 
B3 | Slow hydrolyses of Fura-2 AM and Indo-1 AM | 
B4 | no apparent Ca^2+ sensitivity was detected | 
